The source of these data is patent US20260176378A1 (DYAX, published 2026).

Sequences and labels used below:
B1: M9-H04 (Fab, V domains shown)
VH: EVQLLESGGGLVQPGGSLRLSCAASGFTFSAYTMWWVRQAPGKGLEWVSSIWPSGGSTFYADSVKGRFTISRDNSKNTLYLQMNSLRAEDTAVYYCARTYDSSAGEVDYWGQGTLVTVSS
VL: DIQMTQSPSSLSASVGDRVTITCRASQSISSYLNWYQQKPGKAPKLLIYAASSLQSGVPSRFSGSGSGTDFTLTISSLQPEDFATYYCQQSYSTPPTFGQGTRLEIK
B2: M9-H02 (Fab, V domains shown)
VH: EVQLLESGGGLVQPGGSLRLSCAASGFTFSAYMMIWVRQAPGKGLEWVSVIYPSGGVTMYADSVKGRFTISRDNSKNTLYLQMNSLRAEDTAVYYCARGTVGASDAFDIWGQGTMVTVSS
VL: DIQMTQSPSSLSASVGDRVIITCRASRSIATYLNWYQQKPGKAPNLLIFGASTLQSGVPSRFSGSGSGTDFTLTISDLQPEDFATYYCQQSFSDPYTFGQGTNLEMK
B3: M10-A03 (Fab, V domains shown)
VH: EVQLLESGGGLVQPGGSLRLSCAASGFTFSPYPMQWVRQAPGKGLEWVSSISSSGGMTEYADSVKGRFTISRDNSKNTLYLQMNSLRAEDTAVYYCARDDYGGKGGAFDIWGQGTMVTVSS
VL: DIQMTQSPSSLSASVGDRVTITCRASQRISFYLNWFQQKPGKAPNLLIYGASSLQSGVPSRFSGSGSGTDFTLTISSLQPKDFGTYYCQQTFSTPNTFGQGTKLEIK
B4: M9-D08 (Fab, V domains shown)
VH: EVQLLESGGGLVQPGGSLRLSCAASGFTFSWYKMMWVRQAPGKGLEWVSSIYPSGGWTNYADSVKGRFTISRDNSKNTLYLQMNSLRAEDTAVYYCTRGSPWGDDAFDIWGQGTMVTVSS
VL: DIQMTQSPSSLSASVGDRVTLTCRASRTISFYLNWYQQKAGKAPELLIYGGSSLHSGVPSRFSGSGSGTDFSLTISNLQPEDIAVYYCQQSFSSPWTFGQGTKVEIK
B5: M10-C11 (Fab, V domains shown)
VH: EVQLLESGGGLVQPGGSLRLSCAASGFTFSMYPMMWVRQAPGKGLEWVSYISPSGGMTDYADSVKGRFTISRDNSKNTLYLQMNSLRAEDMAVYYCARVAGSSDAFDIWGQGTMVTVSS
VL: DIQMTQSPSSLSASVGDRVTITCRASQSISIYLNWYQQKPEKAPKLLIFAASTLQSGVPSRFSGSGSGTDFTLTISNLQPEDFATYYCQQSHSIPPTFGLGTKVEVK
B6: M11-A10 (Fab, V domains shown)
VH: EVQLLESGGGLVQPGGSLRLSCAASGFTFSNYWMMWVRQAPGKGLEWVSGIGSSGGFTSYADSVKGRFTISRDNSKNTLYLQMNSLRAEDTAVYYCAKGSYSDYGVFESWGQGTLVTVSS
VL: DIQMTQSPSSLSASVGDRVAITCRASQSIDTYLNWYQQKPGKAPKLLIYDASNLEIGVPSRFSGSGSGTDFTFIINSLQPEDVATYYCQHYLYAPYSFGQGTKLEIK
B7: M10-F09 (Fab, V domains shown)
VH: EVQLLESGGGLVQPGGSLRLSCAASGFTFSNYDMMWVRQAPGKGLEWVSYISPSGGFTRYADSVKGRFTISRDNSKNTLYLQMNSLRAEDTATYYCAKDIYYYNWGPSHYFDSWGQGTLVTVSS
VL: DIQMTQSPSSLSASVGDRVTITCRASQTIDDDLIWYQQKPGRAPKLLIYAASSLQSGVPSRFSGSGSGTDFTLTITSLQPEDFATYYCQQSYNIPRTFGQGTKLESK
B8: M10-A12 (Fab, V domains shown)
VH: EVQLLESGGGLVQPGGSLRLSCAASGFTFSLYLMHWVRQAPGKGLEWVSSIYSSGGFTTYADSVKGRFTISRDNSKNTLYLQMNSLRAEDTAVYYCARDTDYGMDVWGQGTTVTVSS
VL: DIQMTQSPLSLSAFVGDRVTITCRASRDISVYLNWYQLKSGKAPKLLIYGASSLQSGVPSRFSGSGSGTDFTLTITSLQPEDFATYYCQQSYSIPFTFGGGTKVETK
B9: M9-C08 (Fab, V domains shown)
VH: EVQLLESGGGLVQPGGSLRLSCAASGFTFSHYGMVWVRQAPGKGLEWVSYIVPSGGLTYYADSVKGRFTISRDNSKNTLYLQMNSLRAEDTAVYYCARVDYTGDGLGYWGQGTLVTVSS
VL: DIQMTQSPSSLSASVGDRVTITCRASQSISIYVNWYQQKPGKAPNLLIFAASSLQRGVPSRFSGSGSGADFTLTISSLQPEDFATYYCQQSFSTPLTFGGGTKVEIK
B10: M8-H04 (Fab, V domains shown)
VH: EVQLLESGGGLVQPGGSLRLSCAASGFTFSGYWMGWVRQAPGKGLEWVSSISSSGGWTQYADSVKGRFTISRDNSKNTLYLQMNSLRAEDTATYYCARDDEIAAGGAFDIWGQGAMVTVSS
VL: DIQMTQSPSSLSASIGDRVTITCRASQYISTYLNWYEQKPGKAPKLLIYGTSSLQSGVPSRFSGSGSGTEFSLTISSLQPEDFATYYCQQSFTTPFTFGQGTKLEIK
B11: M9-F08 (Fab, V domains shown)
VH: EVQLLESGGGLVQPGGSLRLSCAASGFTFSPYAMTWVRQAPGKGLEWVSVIYPSGGFTDYADSVKGRFTISRDNSKNTLYLQMNSLRAEDTAMYYCARASGSYLDAFDIWGQGTMVTVSS
VL: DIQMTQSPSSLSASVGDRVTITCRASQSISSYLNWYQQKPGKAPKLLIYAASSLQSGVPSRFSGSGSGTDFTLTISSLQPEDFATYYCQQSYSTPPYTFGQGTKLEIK
B12: M10-B09 (Fab, V domains shown)
VH: EVQLLESGGGLVQPGGSLRLSCAASGFTFSWYEMSWVRQAPGKGLEWVSRIWPSGGVTMYADSVKGRFTISRDNSKNTLYLQMNSLRAEDTAVYYCTRTSITTVGMDVWGQGTTVTVSS
VL: DIQMTQSPSSLSASVGDGVTITCRASQSISTYLNWYQQRPGKAPKLLIYGASSLQSGVPSRFSGSGSGTDFTLTISSLQREDFATYYCQQSFSTPWTFGQGTRVEIK
B13: M9-G08 (Fab, V domains shown)
VH: EVQLLESGGGLVQPGGSLRLSCAASGFTFSYYTMLWVRQAPGKGLEWVSSIYPSGGFTMYADSVKGRFTISRDNSKNTLYLQMNSLRAEDTAVYYCARVDTAMAMIDYWGQGTLVTVSS
VL: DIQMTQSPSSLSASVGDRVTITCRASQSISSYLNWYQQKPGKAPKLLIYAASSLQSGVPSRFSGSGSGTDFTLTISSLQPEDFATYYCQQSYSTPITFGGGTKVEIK
B14: M9-E04 (Fab, V domains shown)
VH: EVQLLESGGGLVQPGGSLRLSCAASGFTFSEYDMMWVRQAPGKGLEWVSSIGSSGGMTYYADSVKGRFTISRDNSKNTLYLQMNSLRAEDTAVYYCARDQVAAAAIDYWGQGTLVTVSS
VL: DIQMIQSPSSLSASVGDRVTITCRASQSISGYLNWYQQRSGKAPKLLIFAASNLQTGVPSRFSGSGSGTDFTLTINNLQPEDFATYYCQQSHTPPKTFGPGTKVDIK
B15: M9-F09 (Fab, V domains shown)
VH: EVQLLESGGGLVQPGGSLRLSCAASGFTFSSYPMGWVRQAPGKGLEWVSRISSSGGMTIYADSVKGRFTISRDNSKNTLYLQMNSLRAEDTAVYYCARDDWNVGMDVWGQGTTVTVSS
VL: DIQMTQSPSSLSASVGDRVTITCRASQSISSYLNWYQQKPGKAPKLLIYAASSLQSGVPSKFSGSGSGTDYTLTISSLQPEDFATYYCQQTYTTPWTFGQGTKVEIK
B16: M9-C10 (Fab, V domains shown)
VH: EVQLLESGGGLVQPGGSLRLSCAASGFTFSLYPMQWVRQAPGKGLEWVSSIGSSGGMTFYADSVKGRFTISRDNSKNTLYLQMNSLRAEDTAVYYCTREVGAAGFAFDIWGQGTMVTVSS
VL: DIQMTQSPSSLSASVGDRVTITCRASQGISSYLNWYQQKPGNAPNLLIYGASSLQSGVPSRFSGSGSGTDFTLTISSLQPEDFATYYCQESYSTLFTFGPGTTVEIK
B17: M10-G09 (Fab, V domains shown)
VH: EVQLLESGGGLVQPGGSLRLSCAASGFTFSQYGMQWVRQAPGKGLEWVSSIRSSGGATRYADSVKGRFTISRDNSKNTLYLQMNSLRAEDTAVYYCARDGYYDSSGYPDYWGQGTLVTVSS
VL: DIQMTQSPSSLSASVGDSVTITCRASQSISGYINWYQQKAGKAPKLLIYAASSLQSGVPSRFSGSGSGTHFTLTISSLQPEDFATYYCQQYVSYPFTFGPGTKVDIK
B18: M10-E06 (Fab, V domains shown)
VH: EVQLLESGGGLVQPGGSLRLSCAASGFTFSLYRMFWVRQAPGKGLEWVSSIWSSGGPTMYADSVKGRFTISRDNSKNTLYLQMNSLRAEDTAVYYCAREYPSTYYFDYWGQGTLVTVSS
VL: DIQMTQSPSSLSASVGDRVTITCRASQSISTYLNWYQQKPGKAPKLLIYGASSLQSGVPSRFSGSGSGTDFTLTISSLQPEDFTIYYCQQSYSDPYTFGQGTKLDIK
B19: M9-A08 (Fab, V domains shown)
VH: EVQLLESGGGLVQPGGSLRLSCAASGFTFSAYEMWWVRQAPGKGLEWVSYIGSSGGSTSYADSVKGRFTISRDNSKNTLYLQMNSLRAEDTAVYYCTGGNSSSFDAFDIWGQGTMVTVSS
VL: DIQMTQSPSSLSASVGDRVTVTCRASQRISTYLNWYQQKPGKAPKLLISGASSLQSGVPSRFSGSGSGTDFTLTISSLQPDDFATYYCQQSYNTPRTFGQGTKVEIR
B20: M9-A03 (Fab, V domains shown)
VH: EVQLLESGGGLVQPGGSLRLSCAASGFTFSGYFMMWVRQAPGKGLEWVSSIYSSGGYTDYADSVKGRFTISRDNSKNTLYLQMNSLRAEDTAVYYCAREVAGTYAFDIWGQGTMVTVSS
VL: DIQMTQSPSSLSASLGDRVTITCRASQNIDIYLNWYQQTPGKAPKLLIYGAYNLQSGVPSRFSGSGSGTDFTLTISSLQPEDFGTYYCQQSYGTPVFGQGTKLEIK
B21: M9-F10 (Fab, V domains shown)
VH: EVQLLESGGGLVQPGGSLRLSCAASGFTFSDYDMEWVRQAPGKGLEWVSSISPSGGSTIYADSVKGRFTISRDNSKNTLYLQMNSLRAEDTAVYYCARQGLLTAFDIWGQGTMVTVSS
VL: DIQMTQSPSSLSASVGDRVTITCRASQSINTYLNWYQQKPGKAPKVLIHAASTLESGVPSRFSGSGSGTDFTLTISSLQPEDFATYYCQQSYSTPYTFGQGTKLEVR
B22: M10-D11 (Fab, V domains shown)
VH: EVQLLESGGGLVQPGGSLRLSCAASGFTFSAYPMNWVRQAPGKGLEWVSRISSSGGNTSYADSVKGRFTISRDNSKNTLYLQMNSLRAEDTAVYYCALGYLGYWGQGTLVTVSS
VL: not shown
B23: M9-H03 (Fab, V domains shown)
VH: EVQLLESGGGLVQPGGSLRLSCAASGFTFSWYSMGWVRQAPGKGLEWVSYIVPSGGYTMYADSVKGRFTISRDNSKNTLYLQMNSLRAEDTAVYYCARDPGVSYYYYGMDVWGQGTTVTVSS
VL: QYELTQAPSVSVAPGQTASITCSGDKLGNRYTSWYQQKPGQSPVLVIFQDNKRPSGIPERFSGSNSGNTATLTISGTQAMDEADYYCQALDSNTYVFGTGTKVTVL

In this assay the target is T1, human plasma kallikrein (human, UniProt P03952 20-390; P03952 391-638).
T1 construct: two disulfide-linked chains; NP_000883.2; also called pKal; hpKal
T1 sequence (P03952 20-390 limits assumed, chain 1 of 2): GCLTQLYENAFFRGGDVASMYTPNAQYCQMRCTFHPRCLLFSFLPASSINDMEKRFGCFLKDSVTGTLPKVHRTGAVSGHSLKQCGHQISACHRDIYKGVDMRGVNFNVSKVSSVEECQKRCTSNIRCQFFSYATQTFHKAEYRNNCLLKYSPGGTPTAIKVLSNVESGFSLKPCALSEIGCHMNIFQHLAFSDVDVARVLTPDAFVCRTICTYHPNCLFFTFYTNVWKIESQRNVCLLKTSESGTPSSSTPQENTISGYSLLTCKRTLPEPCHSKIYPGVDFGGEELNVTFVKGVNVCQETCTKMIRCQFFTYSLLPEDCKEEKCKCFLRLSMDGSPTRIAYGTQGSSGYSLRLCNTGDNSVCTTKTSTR
T1 sequence (P03952 391-638 limits assumed, chain 2 of 2): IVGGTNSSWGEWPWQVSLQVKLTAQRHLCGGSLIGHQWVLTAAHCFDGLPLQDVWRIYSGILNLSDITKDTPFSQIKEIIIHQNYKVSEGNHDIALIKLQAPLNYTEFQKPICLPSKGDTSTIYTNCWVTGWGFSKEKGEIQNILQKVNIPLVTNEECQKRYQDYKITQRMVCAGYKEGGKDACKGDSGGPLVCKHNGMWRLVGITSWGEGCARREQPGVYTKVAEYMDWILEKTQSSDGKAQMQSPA
The assay is described as follows: ELISA, biotinylated pKal signal over streptavidin background. On the technique in general: An ELISA detects its analyte on a solid surface through an enzyme-linked reagent.
As for B1, the “ELISA (T/B)” value worked out at 16.1. For B2, the “ELISA (T/B)” value was 3.5. Take B3: the “ELISA (T/B)” value turned out to be 33.7. Regarding B4, the “ELISA (T/B)” value was found to be 35.9. In the case of B5 it was 5.3; in that of B6, 25; in that of B7, 4.8. Consider B8, for which the “ELISA (T/B)” value came to 20.8. Regarding B9, the “ELISA (T/B)” value was 10.9. B10: the “ELISA (T/B)” value is 3.3. On to B11, for which the “ELISA (T/B)” value amounted to 10.9. For B12, the “ELISA (T/B)” value is 14.1.

B13: the “ELISA (T/B)” value stood at 4.8. Take B14: the “ELISA (T/B)” value worked out at 18.8. In the case of B15 it was 7; in that of B16, 7.8; in that of B17, 7.1. In the case of B18 it was 32.8; in that of B19, 5.5; in that of B20, 14.4. As for B21, the “ELISA (T/B)” value was 8.4.

Take B22: the “ELISA (T/B)” value is 6.4. B23: the “ELISA (T/B)” value is 4.4.
